Measured values published in patent publication US7595158B2, “Bcl2L12 polypeptide activators and inhibitors” (Dana-Farber Cancer Institute, Inc., priority 2003, dated 2009).

Tests used:
[1] = system: Ink4a/Arf deficient astrocytic cell cultures; assay: Nuclear swelling (Nicoletti method) in Ink4a/Arf deficient astrocytes; assay type: cell-based, mouse; conditions: STS 500 nM 24 hours; vector only about 42 percent
Method: To quantify nuclear swelling in Ink4a/Arf deficient astrocytic cell cultures, cells transfected with vector only or a vector encoding a Bcl2L12-V5 polypeptide were treated with or without STS (500 nM) for 24 hours, lysed, and stained with Propidium Iodide (Nicoletti method). Nuclei with increased forward scatter (i.e., increased size) were defined as swollen, and the number of those nuclei relatively to the total number of nuclei was expressed as the percent swelling.

[2] = system: Ink4a-/-/Arf-/- astrocytes; assay: Annexin V staining of STS-treated Ink4a/Arf deficient astrocytes (FACS); assay type: cell-based, mouse
Method: The following experiments were performed to determine whether the Bcl2L12 polypeptide influenced cell survival or apoptosis. Ink4a^−/−/Arf^−/− astrocytes retro-virally infected with vector alone (pBabe) or vector containing Bcl2 nucleic acid, Bcl2L12-V5 nucleic acid, R-RAS nucleic acid, or IRF3 nucleic acid were […] After this one day incubation, the cells were stained with annexin V (Roche). Annexin V-positive cells were determined by FACScan analysis (mean±S.D.; three independent experiments with each being performed in triplicate).
After STS treatment, the cells were analyzed for apoptosis by assessing annexin V binding and DNA fragmentation using a FACS based analysis.

[3] = system: Ink4a/Arf deficient embryonic fibroblasts; assay: Colony formation of Ink4a/Arf deficient embryonic fibroblasts; assay type: cell-based; conditions: about 300 cells per 6 well plate; vector only about 13
Method: In addition, Ink4a/Arf deficient embryonic fibroblasts were transfected with vector only or a vector encoding a Bcl2L12 polypeptide or Bcl2 polypeptide. Once the cells were transfected, the number of colonies formed in cultures (about 300 cells per 6 well plate) was determined. Expression of Bcl2L12 polypeptide promoted growth of Ink4a/Arf deficient embryonic fibroblasts. […] In a similar experiment, Ink4a/Arf deficient embryonic fibroblasts were co-transfected with a vector encoding H-RasV12 and either a vector only, vector encoding Bcl2L12 polypeptide, or a vector encoding Bcl2 polypeptide. Once the cells were transfected, the number of foci formed per transfection was determined. Expression of Bcl2L12 polypeptide or Bcl2 polypeptide in combination with H-RasV12 expression promoted growth of Ink4a/Arf deficient embryonic fibroblasts (about 1.5 to 2 fold more foci per transfection for cells expressing Bcl2L12 polypeptide or Bcl2 polypeptide compared to control pBabe cells).

B1: Bcl2L12-V5: Bcl2L12 polypeptide having the V5 epitope tag, ectopically expressed from pBabe-Bcl2L12-V5 vector; human amino acid sequence 1-334 (protein)
chain: MGRPAGLFPPLCPFLGFRPEACWERHMQIERAPSVPPFLRWAGYRPGPVRRRGKVELIKFVRVQWRRPQVEWRRRRWGPGPGASMAGSEELGLREDTLRVLAAFLRRGEAAGSPVPTPPRSPAQEEPTDFLSRLRRCLPCSLGRGAAPSESPRPCSLPIRPCYGLEPGPATPDFYALVAQRLEQLVQEQLKSPPSPELQGPPSTEKEAILRRLVALLEEEAEVINQKLASDPALRSKLVRLSSDSFARLVELFCSRDDSSRPSRACPGPPPPSPEPLARLALAMELSRRVAGLGGTLAGLSVEHVHSFTPWIQAHGGWEGILAVSPVDLNLPLD
modifications: left off: small tags and cut ends
Question: With B1 as the molecule, how does the “swelling (nuclei)” value [1] read?
Answer: about 67%

Question: What about the annexin-V positive cells ([2]; 100 nM staurosporine one day, control cultures about 17-22 percent) of the same molecule?
Answer: 6-7%

Question: And the “annexin V+/PI- cells” value ([2]; 500 nM STS, pBabe about 20 percent)?
Answer: about 6%

Question: And the number of colonies [3]?
Answer: about 26 colonies
